The values that follow come from paper PMC10993188, “RAD51 separation of function mutation disables replication fork maintenance but preserves DSB repair”.

Series [1] addresses T1, RAD51 S181P (SP) (Homo sapiens, UniProt Q06609 1-339, S181P). Put plainly: stopped-flow PIFE; no Ex27; similar mechanism to WT, slower assembly at suboptimal concentrations; EMSA: 10 mM Tris-HCl pH 7.5, 10 mM KCl, 1 mM MgCl2, 1 mM ATP, 1 mM DTT, 25 C, 25 nM DNA, 1.1 uM RAD51; BLI: 50 mM Tris-HCl pH 7.5, 50 mM KCl, 5 mM MgCl2, 2 mM ATP, 0.05% Tween 20, 15 nM DNA; stopped-flow buffer not in material. Conditions: protein: recombinant; chain copies: 10; label: 5' Cy3; single strand.

Series [2] addresses T2, RAD51 WT (Homo sapiens, UniProt Q06609 1-339). Put plainly: stopped-flow PIFE; no Ex27; EMSA: 10 mM Tris-HCl pH 7.5, 10 mM KCl, 1 mM MgCl2, 1 mM ATP, 1 mM DTT, 25 C, 25 nM DNA, 1.1 uM RAD51; BLI: 50 mM Tris-HCl pH 7.5, 50 mM KCl, 5 mM MgCl2, 2 mM ATP, 0.05% Tween 20, 15 nM DNA; stopped-flow buffer not in material. As to conditions: protein: recombinant; chain copies: 10; label: 5' Cy3; single strand.

The target in series [3] is T3, RAD51 WT;BRCA2 Ex27 peptide (TR2) (Homo sapiens;Homo sapiens, UniProt Q06609;P51587 1-339;, |). Put plainly: stopped-flow PIFE; Ex27 increases amplitude and decreases binding rate; EMSA: 10 mM Tris-HCl pH 7.5, 10 mM KCl, 1 mM MgCl2, 1 mM ATP, 1 mM DTT, 25 C, 25 nM DNA, 1.1 uM RAD51; BLI: 50 mM Tris-HCl pH 7.5, 50 mM KCl, 5 mM MgCl2, 2 mM ATP, 0.05% Tween 20, 15 nM DNA; stopped-flow buffer not in material. As to conditions: tags: ;; label: 5' Cy3; single strand.

Series [4] deals with T2, RAD51 WT. Put plainly: EMSA; 1 mM ATP, 1 mM Mg2+; no Ex27; complex disassembled by GST-BRC3; EMSA: 10 mM Tris-HCl pH 7.5, 10 mM KCl, 1 mM MgCl2, 1 mM ATP, 1 mM DTT, 25 C, 25 nM DNA, 1.1 uM RAD51; BLI: 50 mM Tris-HCl pH 7.5, 50 mM KCl, 5 mM MgCl2, 2 mM ATP, 0.05% Tween 20, 15 nM DNA; stopped-flow buffer not in material. As to conditions: protein: recombinant; chain copies: 10; label: 5' FAM (FITC); single strand.

The target in series [5] is T3, RAD51 WT;BRCA2 Ex27 peptide (TR2). Put plainly: EMSA super-shift; 5.7 uM Ex27, 1 mM ATP, 1 mM Mg2+; almost completely resistant to GST-BRC3; EMSA: 10 mM Tris-HCl pH 7.5, 10 mM KCl, 1 mM MgCl2, 1 mM ATP, 1 mM DTT, 25 C, 25 nM DNA, 1.1 uM RAD51; BLI: 50 mM Tris-HCl pH 7.5, 50 mM KCl, 5 mM MgCl2, 2 mM ATP, 0.05% Tween 20, 15 nM DNA; stopped-flow buffer not in material. Conditions: tags: ;; label: 5' FAM (FITC); single strand.

The target of series [6] is T2, RAD51 WT. Put plainly: BLI; 2 mM ATP, 5 mM Mg2+; 2 uM RAD51; dissociated by GST-BRC4; EMSA: 10 mM Tris-HCl pH 7.5, 10 mM KCl, 1 mM MgCl2, 1 mM ATP, 1 mM DTT, 25 C, 25 nM DNA, 1.1 uM RAD51; BLI: 50 mM Tris-HCl pH 7.5, 50 mM KCl, 5 mM MgCl2, 2 mM ATP, 0.05% Tween 20, 15 nM DNA; stopped-flow buffer not in material. As to conditions: protein: recombinant; chain copies: 10; label: 3' biotin; single strand.

Series [7] addresses T1, RAD51 S181P (SP). The description is as above. Conditions: protein: recombinant; chain copies: 10; label: 3' biotin; single strand.

T2 sequence (Q06609 whole entry): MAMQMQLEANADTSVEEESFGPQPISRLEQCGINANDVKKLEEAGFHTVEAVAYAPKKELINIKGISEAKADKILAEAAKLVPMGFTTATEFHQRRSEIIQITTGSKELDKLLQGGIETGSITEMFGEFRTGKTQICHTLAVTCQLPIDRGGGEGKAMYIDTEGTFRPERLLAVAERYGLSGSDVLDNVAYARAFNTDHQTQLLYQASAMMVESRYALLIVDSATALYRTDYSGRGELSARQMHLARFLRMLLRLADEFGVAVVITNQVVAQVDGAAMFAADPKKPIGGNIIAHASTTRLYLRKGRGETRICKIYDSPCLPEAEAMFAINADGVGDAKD
T1 sequence (Q06609 whole entry S181P): as the sequence (Q06609 whole entry) above, with S181P counted along it

B1: Cy3-(dT)79 (ssDNA)
DNA: TTTTTTTTTTTTTTTTTTTTTTTTTTTTTTTTTTTTTTTTTTTTTTTTTTTTTTTTTTTTTTTTTTTTTTTTTTTTTTT
Turning to B1, the binding result (with RAD51 S181P (SP) [1]; with RAD51 WT [2]; in series [3]) was “binds” throughout.

B2: 5'FITC-90mer ssDNA (ssDNA)
DNA: AAATCAATCTAAAGTATATATGAGTAAACTTGGTCTGACAGTTACCAATGCTTAATCAGTGAGGCACCTATCTCAGCGATCTGTCTATTT
For the molecule B2, the binding result (with RAD51 WT [4]; in series [5]) was “binds” in each case.

B3: oligo-dT 43-mer (ssDNA)
DNA: TTTTTTTTTTTTTTTTTTTTTTTTTTTTTTTTTTTTTTTTTTT
On to B3, for which the binding result with RAD51 WT [6] and in the series with RAD51 S181P (SP) [7] was “binds” in each case.
